According to EP2225268B1:
Each block holds one molecule with its values, some of them ahead of it.

Columns and labels:
[1] = molecular target: Wild-type recombinant human NGAL monomer expressed in CHO cells (human) (UniProt P80188); test: … sandwich CMIA, capture HYB 211-01, detection acridinium-HYB 211-02; curve fit with monomer calibrators; target 50 ng/mL
[2] = molecular target: Wild-type recombinant human NGAL dimer expressed in CHO cells (human) (UniProt P80188); test: as above
[3] = molecular target: Wild-type recombinant human NGAL dimer calibrators treated with DTT (human) (UniProt P80188); test: as above
[4] = molecular target: Wild-type recombinant human NGAL dimer calibrators treated with DTT (human) (UniProt P80188); test: … sandwich CMIA, capture HYB 211-01, detection acridinium-HYB 211-02; DTT-treated dimer calibrators against untreated dimer calibrators
[5] = molecular target: Wild-type recombinant human NGAL monomer expressed in CHO cells (human) (UniProt P80188); test: … sandwich CMIA, capture HYB 211-01, detection acridinium-HYB 211-02; curve fit with monomer calibrators; target 600 ng/mL
[6] = molecular target: Wild-type recombinant human NGAL dimer expressed in CHO cells (human) (UniProt P80188); test: as above
[7] = molecular target: Wild-type recombinant human NGAL dimer calibrators treated with DTT (human) (UniProt P80188); test: as above
[8] = molecular target: Wild-type recombinant human NGAL monomer expressed in CHO cells (human) (UniProt P80188); test: … sandwich CMIA, capture HYB 211-01, detection acridinium-HYB 211-02; calibrator B, NGAL 5 ng/mL
[9] = molecular target: Wild-type recombinant human NGAL dimer expressed in CHO cells (human) (UniProt P80188); test: as above
[10] = molecular target: Wild-type recombinant human NGAL dimer calibrators treated with DTT (human) (UniProt P80188); test: as above
[11] = molecular target: Native NGAL purchased from Diagnostics Development (Uppsala, Sweden), non-reduced (UniProt P80188); test: … sandwich CMIA, capture HYB 211-01, detection acridinium-HYB 211-02; NGAL 5 ng/mL
[12] = molecular target: Wild-type recombinant human NGAL monomer expressed in CHO cells (human) (UniProt P80188); test: as above
[13] = molecular target: Wild-type recombinant human NGAL dimer expressed in CHO cells (human) (UniProt P80188); test: as above
[14] = molecular target: Wild-type recombinant human NGAL dimer calibrators treated with DTT (human) (UniProt P80188); test: as above
[15] = molecular target: Wild-type recombinant human NGAL dimer calibrators treated with DTT (human) (UniProt P80188); test: … sandwich CMIA, capture HYB 211-01, detection acridinium-HYB 211-02; DTT-treated against untreated dimer calibrator; target 600 ng/mL
[16] = molecular target: Native NGAL purchased from Diagnostics Development (Uppsala, Sweden), non-reduced (UniProt P80188); test: … sandwich CMIA, capture HYB 211-01, detection acridinium-HYB 211-02; NGAL 1000 ng/mL
[17] = molecular target: Wild-type recombinant human NGAL monomer expressed in CHO cells (human) (UniProt P80188); test: as above
[18] = molecular target: Wild-type recombinant human NGAL dimer expressed in CHO cells (human) (UniProt P80188); test: as above
[19] = molecular target: Wild-type recombinant human NGAL dimer calibrators treated with DTT (human) (UniProt P80188); test: as above
[20] = molecular target: Wild-type recombinant human NGAL monomer expressed in CHO cells (human) (UniProt P80188); test: … sandwich CMIA, capture 1-2322-455, detection acridinium-1-903-430; NGAL 1000 ng/mL
[21] = molecular target: Wild-type recombinant human NGAL dimer expressed in CHO cells (human) (UniProt P80188); test: as above
[22] = molecular target: Wild-type recombinant human NGAL dimer expressed in CHO cells (human) (UniProt P80188); test: … sandwich CMIA, capture 1-2322-455, detection acridinium-1-903-430; curve fit with monomer calibrators; target 5 ng/mL
[23] = molecular target: Wild-type recombinant human NGAL monomer expressed in CHO cells (human) (UniProt P80188); test: … sandwich CMIA, capture 1-2322-455, detection acridinium-1-903-430; curve fit with monomer calibrators; target 250 ng/mL
[24] = molecular target: Wild-type recombinant human NGAL dimer expressed in CHO cells (human) (UniProt P80188); test: as above

Curve Fit Results [1]: 49.5 ng/mL
Curve Fit Results [2]: 14.1 ng/mL
Curve Fit Results [3]: 49 ng/mL
average % increase of NGAL concentration after reduction of dimers [4]: 248%
Curve Fit Results [5]: 598 ng/mL
Curve Fit Results [6]: 161 ng/mL
Curve Fit Results [7]: 574 ng/mL
RLUs [8]: 12000 RLUs
RLUs [9]: 4050 RLUs
RLUs [10]: 11400 RLUs
RLUs [11]: 15300 RLUs
RLUs [12]: 12000 RLUs
RLUs [13]: 4050 RLUs
RLUs [14]: 11400 RLUs
% Increase due to DTT [15]: 256%
RLUs [16]: 1.32e+06 RLUs
RLUs [17]: 885000 RLUs
RLUs [18]: 390000 RLUs
RLUs [19]: 855000 RLUs
Molecule: anti-NGAL antibody HYB 211-01 from AntibodyShop A/S, Gentofte, Denmark

RLUs [20]: 1.93e+06 RLUs
RLUs [21]: 993000 RLUs
Curve Fit Results [22]: 1.2 ng/mL
Curve Fit Results [23]: 255 ng/mL
Curve Fit Results [24]: 71.7 ng/mL
B1: antibody produced by murine hybridoma cell line 1-2322-455 having ATCC Accession No. PTA-8024 (antibody, V domains shown)
VH: EVQLVESGGGLVQPGGSLKLSCAASGFTFNNYYMSWVRQTPERRLEWVAYISSSGGSTYYSDSVRGRFTISRDTARNTLYLQMTSLKSEDTAMYYCARHFGDYSYFDYWGQGTTLTVSS
VL: DIQMTQSPASLSASVGETVTITCRASENFYSYLAWYQQKQGKSPQLLVYNAKTLAEGVPSRFSGSGSGTQFSLKINSLQPEDFGTYYCQHHYDIPLTFGAGTKLELKR
